# Data taken from the supplement of paper PMC9732359.
# ± gives the uncertainty stated by the source.
# Experiment: protein stability index of a GFP-peptide fusion (yeast GPS) (PSI 1-4); higher = more stable; sorted into four equal gates, so the index is relative within each strain
# Settings: san1∆
# How it was run: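 Sequencing reads from sorted gates were used to score each peptide. The library consisted of tiled 17-residue yeast protein peptides fused downstream of GFP on a Cherry-expressing plasmid, pooled and carried in yeast. Mid-log cultures in leucine-free medium were split into four equal gates by GFP/Cherry ratio, and each gate's plasmids were PCR-amplified and Illumina-sequenced. The protein stability index adds up, over all gates, the read frequency multiplied by the gate number.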
row,Sequence,protein stability index
1,PQYNMNMGMNNMNNGGK [PGD1],3.16 ± 0.11
2,PRFNRDNKVSPAAAAKK [RPS26B],2.61 ± 0.11
3,PSADGADKKDDSESNSE [ITC1],3.34 ± 0.068
4,PSAEIREAYIENFAKGE [SWP82],2.58 ± 0.1
5,PSASLKLHHDLKLCLGD [YMR129W/POM152],2.92 ± 0.083
6,PSDVNIDVMKSQIIPLM [SNU114],2.65 ± 0.07
7,PSENDVFYRMQQLRRAL [RPO31],2.5 ± 0.1
8,PSFGKRHNKSHTLCNRC [RPL37A],2.97 ± 0.12
9,PSGRTRGRSVMKESVVE [ESC2],2.99 ± 0.19
10,PSIIFIDEVDSIATKRF [RPT3],2.96 ± 0.046
11,PSKLVITKLHLDKDRKA [RPL26A],1.75 ± 0.28
12,PSLEKSSFTFGSTTIEK [YLR335W/NUP2],1.66 ± 0.15
13,PSLNPIPHFIDNNSSLN [PRP8],2.78 ± 0.055
14,PSPISHVAEIRSALEKG [RPB2],1.68 ± 0.09
15,PSPKKVAIDQDKITLHD [SIR4],2.27 ± 0.079
16,PSQGMVVEISNGNTSSK [FAS1],3.2 ± 0.048
17,PSSMATLLKNLRKKLNF [YJR042W/NUP85],2.91 ± 0.079
18,PSTNAQNVNVPSAFNFT [YOR098C/NUP1],2.67 ± 0.041
19,PSYYYYVDPETTYTYQQ [ROX3],2.85 ± 0.053
20,PTGGKAKLSEGTSFRRK [RPS27A],3.33 ± 0.065
21,PTGKEEGDGAKAAISFG [YJL041W/NSP1],3.35 ± 0.1
22,PTLGERLDNLQDIKKAK [DSN1],2.71 ± 0.085
23,PTMYTRLCICSGMLFEM [SIN4],1.39 ± 0.08
24,PTTTTGGLFGNSAQNNS [YGR119C/NUP57],3 ± 0.062
25,PVPESAGKADTSIRLEG [SRB4],2.95 ± 0.055
26,PVSLLNSQLVGKPHFSL [PCI8],1.88 ± 0.21

row,Sequence,protein stability index
1,PVSPLDIYSDEASAQKK [RPS2],3.02 ± 0.075
2,PVVINLDAKNKVFVPPK [RPO31],3.33 ± 0.11
3,PWGDYLQLETPAEVGRA [BRR2],1.47 ± 0.088
4,PYAQKPLQGIFHNAVFN [QCR8],2.35 ± 0.045
5,PYDSNNSNTNLNSLSPQ [SWI1],2.76 ± 0.054
6,PYLLPYILEAEAAAKEK [QCR7],1.5 ± 0.11
7,PYPGSPMHSIMPNSSLQ [DSN1],2.63 ± 0.057
8,PYPKSRYNRAVPDSKIR [RPL10],3.05 ± 0.043
9,QAIAKNNPQVVNAITVA [SNF5],1.63 ± 0.05
10,QAINLGQVVLTPLTFAL [RPL14A],1.25 ± 0.09
11,QAQAQAHAQHQPSQQPQ [GAL11],2.974 ± 0.022
12,QARMMQQQSADHDDSTD [NSL1],2.62 ± 0.052
13,QAVETVGQAGRPKKITG [RPN1],2.31 ± 0.12
14,QDHFHRLNYLYQISAYQ [RPR2],2.42 ± 0.044
15,QDKSKKIMNVTTDSLTK [YMR129W/POM152],3.1 ± 0.034
16,QDNKQLYQIWIVMVWLK [YDL116W/NUP84],3.02 ± 0.065
17,QDRIQDVKLVLASNFDN [MED1],1.88 ± 0.08
18,QDSTSENVKIINYLLTL [RPN2],3.16 ± 0.071
19,QEASQVTFIFGELKRGN [MED11],2.75 ± 0.066
20,QEEEGELEHLTKKSKLE [DSN1],3.14 ± 0.043
21,QELELPGEFVTAIAHSI [SNF5],2.38 ± 0.038
22,QENSSKIITLDLSNYAE [SMC1],3.1 ± 0.054
23,QEQYQTNTFEGSGNNNE [SNU114],3.3 ± 0.13
24,QFLEQGLSIHPTQITQY [SRP68],2.27 ± 0.062
25,QFNEFIQIMANIDQEGS [PGD1],2.33 ± 0.072
26,QFQKARNNVMLLIATNL [SRB8],2.24 ± 0.13

row,Sequence,protein stability index
1,QFVPELKEFTAKLRKEL [FAS2],1.53 ± 0.1
2,QGVYGAVYETLISRMIF [BRR2],1.36 ± 0.15
3,QHIKVFKLDKDTSNWEL [YGL100W/SEH1],3.2 ± 0.16
4,QHQEEPLLSLDVTPISM [RPN4],3.07 ± 0.086
5,QHYLDTATAPRLFDKLK [QCR6],2.84 ± 0.061
6,QIAFDLVSSASQQLLEI [RPN2],1.66 ± 0.11
7,QIFCVFSGKGVHKLRHY [GRR1],3.09 ± 0.066
8,QIFKVAGENAPSIVFID [RPT2],1.31 ± 0.13
9,QILENYNALFQQNIKFR [YJL039C/NUP192],2.86 ± 0.036
10,QIPTVSSPLGFEETKLS [SIR4],2.63 ± 0.14
11,QIQLAESELSLLEETQA [SMC4],2.71 ± 0.095
12,QIRSADEPMTTFYKCVN [RPC11],2.2 ± 0.14
13,QKCFKLTHRLGGDTCSS [POP1],2.55 ± 0.068
14,QKGITSYAVSPYAQKPL [QCR8],2.92 ± 0.063
15,QKNDTAAFKDIAKRQFK [RRP40],2.76 ± 0.068
16,QKNMNDLLRSQLTSLEK [YIL149C/MLP2],1.96 ± 0.075
17,QKRIENGGNSVITLAEY [SRP68],2.9 ± 0.069
18,QKRNAHGYFLQDKEKID [ITC1],3.28 ± 0.048
19,QLDAYGEKKVGSNGELF [SWP82],3.62 ± 0.071
20,QLDLCKLYFQLFLNTGC [SRP68],1.45 ± 0.092
21,QLDLTGIFLHGKIPTLK [PRP8],1.58 ± 0.089
22,QLIDQFEWDISNSDNCP [SNF5],3.21 ± 0.058
23,QLKAEEKKILNQFLKIK [SMC1],2.84 ± 0.09
24,QLKNGLLEKYNTNELKE [MTR3],3.08 ± 0.05
25,QLLMGDIPELSFFHQSN [RPN3],2.39 ± 0.077
26,QLLNGQKIVVVRAEELN [RPL16A],1.24 ± 0.13

row,Sequence,protein stability index
1,QLNLNNLTPANILNMSM [PGD1],2.75 ± 0.067
2,QLTSLEKDCSLRAIEKN [YIL149C/MLP2],2.98 ± 0.058
3,QLVLRGLLSQAIGCIER [YJR042W/NUP85],1.71 ± 0.099
4,QLYKRDPVSGAILVPMT [YJR042W/NUP85],2.6 ± 0.099
5,QMIQQRHQQLLRSRLQQ [SNF5],2.71 ± 0.15
6,QNGQQPPTTSNLIIFLY [YML103C/NUP188],2.94 ± 0.034
7,QNIILRSTMMKFLKIAS [RPN3],2.86 ± 0.077
8,QNKEIKAERVEDQKVVD [RPL6A],3.33 ± 0.041
9,QNPLNKSQNTALPSTHK [SIR4],2.33 ± 0.058
10,QNTSNMNAGGLFGAKPQ [YGR119C/NUP57],3.34 ± 0.052
11,QNTVPNVLNQINQIFSP [GAL11],2.4 ± 0.038
12,QNVISLGSLTVEDYLSS [RPC82],2.06 ± 0.12
13,QPDANKKKRSRTSATRE [ISW2],3.5 ± 0.057
14,QPDENTKEMDEVEEDDE [SWI3],3.53 ± 0.092
15,QPHIFNNPKVKTSKRTK [RPS11A],2.98 ± 0.091
16,QPIVTGTSVISMKYDNG [PRE4],1.93 ± 0.15
17,QPSDVMFNDLNSMDISM [MED2],3.11 ± 0.043
18,QPTGLLKGLNGFPSAPQ [YMR153W/NUP53],3.25 ± 0.11
19,QPVNINLDSSITQDGKF [YMR129W/POM152],3.07 ± 0.048
20,QQIPLLCYMAPMTVKLV [POP3],1.78 ± 0.072
21,QQLQVLARYLKMDLDNG [FAS2],2.78 ± 0.079
22,QQQLVNQMKVAPIPKQL [GAL11],2.974 ± 0.026
23,QQQQIQVPLQQTQAIAQ [YGR119C/NUP57],2.88 ± 0.039
24,QQQQQQNNSTGSSSIIY [SSN2],2.69 ± 0.091
25,QQQQQQQQPQPQYNMNM [PGD1],2.67 ± 0.11

# Same assay, conditions: ubr1∆
row,Sequence,protein stability index
1,PQYNMNMGMNNMNNGGK [PGD1],3.24 ± 0.083
